Variants at the floor of the assay were thinned out.

For one data set, the system named is biotinyl-Phe-oxazolone. In words: self-aminoacylation, catalytic enhancement (BFO) (fold over background); higher = more active; k-Seq, kA / k0A0; sequences stand for … in GGGAAUGGAUCCACAUCUACGAAUUC…UUCACUGCAGACUUGACGAAGCUG
The procedure, abridged: (§1)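 Each biotinyl-aminoacyl-oxazolone, at 2–1250 μM, was incubated with mutagenized RNA pools (0.43 μM) carrying a 21-nt variable region. The 50 μL reactions contained HEPES/NaCl/KCl/MgCl2/CaCl2 buffer with 5% acetonitrile at pH 6.9–7.0 and ran for 90 minutes at room temperature. After streptavidin capture, RNA was measured by qPCR in triplicate and by Illumina sequencing, and catalytic enhancement was calculated as median kA over the uncatalyzed rate from a pseudo-first-order fit of per-sequence fraction reacted.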

The test system of another data set is biotinyl-Met-oxazolone. In words: self-aminoacylation, catalytic enhancement (BMO) (fold over background); higher = more active; k-Seq, kA / k0A0; sequences stand for … in GGGAAUGGAUCCACAUCUACGAAUUC…UUCACUGCAGACUUGACGAAGCUG
The procedure, abridged: as §1

Another data set concerns biotinyl-Trp-oxazolone. In words: self-aminoacylation, catalytic enhancement (BWO) (fold over background); higher = more active; k-Seq, kA / k0A0; sequences stand for … in GGGAAUGGAUCCACAUCUACGAAUUC…UUCACUGCAGACUUGACGAAGCUG
Summed up: as §1

The next data set has as its system biotinyl-Val-oxazolone. In words: self-aminoacylation, catalytic enhancement (BVO) (fold over background); higher = more active; k-Seq, kA / k0A0; sequences stand for … in GGGAAUGGAUCCACAUCUACGAAUUC…UUCACUGCAGACUUGACGAAGCUG
The procedure, abridged:
as §1

Another data set deals with biotinyl-Ile-oxazolone. In words: self-aminoacylation, catalytic enhancement (BIO) (fold over background); higher = more active; k-Seq, kA / k0A0; sequences stand for … in GGGAAUGGAUCCACAUCUACGAAUUC…UUCACUGCAGACUUGACGAAGCUG
Summed up:
as §1

For another data set, the system named is biotinyl-Leu-oxazolone. The data set is described as follows: self-aminoacylation, catalytic enhancement (BLO) (fold over background); higher = more active; k-Seq, kA / k0A0; sequences stand for … in GGGAAUGGAUCCACAUCUACGAAUUC…UUCACUGCAGACUUGACGAAGCUG
Summed up: as §1

In the case of “UUUACCCUGGUCAUCUAGUGA [Fam2.1 aminoacylation ribozyme variant]”, the self-aminoacylation in the data set on biotinyl-Phe-oxazolone stood at 46.3; in the data set with biotinyl-Met-oxazolone it was 8.71; in the data set on biotinyl-Trp-oxazolone it was 10.9; in the data set on biotinyl-Val-oxazolone it was 4.43; in the data set on biotinyl-Ile-oxazolone, 4.72; in the data set with biotinyl-Leu-oxazolone, 8.63.

For the sequence “UUUCACAUAGGUCAUCGGGUG [Fam2.2 aminoacylation ribozyme variant]”, the self-aminoacylation amounted to 56.6 in the data set on biotinyl-Phe-oxazolone; 7.92 with biotinyl-Met-oxazolone; 7.61 with biotinyl-Trp-oxazolone; 5.12 with biotinyl-Val-oxazolone; 5.3 with biotinyl-Ile-oxazolone; 8.51 in the data set on biotinyl-Leu-oxazolone.

With “UUUCACCGAGGUCAUCGGGUG [Fam2.2 aminoacylation ribozyme variant]”, the self-aminoacylation in the data set with biotinyl-Phe-oxazolone was found to be 44.3; in the data set on biotinyl-Met-oxazolone, 7.19; with biotinyl-Trp-oxazolone it was 6.08; with biotinyl-Val-oxazolone, 5.17; in the data set on biotinyl-Ile-oxazolone, 4.52; in the data set with biotinyl-Leu-oxazolone, 6.07.

For the sequence “UUUCACCUACGUCAUCGGGUG [Fam2.2 aminoacylation ribozyme variant]”, the self-aminoacylation came out at 31.6 in the data set with biotinyl-Phe-oxazolone; 4.85 in the data set with biotinyl-Met-oxazolone; 4.58 in the data set on biotinyl-Trp-oxazolone; 3.3 with biotinyl-Val-oxazolone; 2.88 in the data set with biotinyl-Ile-oxazolone; 5.75 with biotinyl-Leu-oxazolone.

“UUUCACCUAGAUCAUCGGGUG [Fam2.2 aminoacylation ribozyme variant]”: the self-aminoacylation with biotinyl-Phe-oxazolone was 16.5; with biotinyl-Met-oxazolone it was 2.58; in the data set with biotinyl-Trp-oxazolone, 3.04; in the data set on biotinyl-Val-oxazolone, 2.58; in the data set with biotinyl-Ile-oxazolone, 2.35; with biotinyl-Leu-oxazolone, 2.82.

Consider “UUUCACCUAGCUCAUCGGGUG [Fam2.2 aminoacylation ribozyme variant]”, for which the self-aminoacylation stood at 1.68 with biotinyl-Phe-oxazolone; 1.77 in the data set on biotinyl-Met-oxazolone; 2.5 in the data set on biotinyl-Trp-oxazolone; 2.73 in the data set with biotinyl-Val-oxazolone; 2.03 in the data set with biotinyl-Ile-oxazolone; 2.24 in the data set with biotinyl-Leu-oxazolone.

For the sequence “UUUCACCUAGGUCACCGGGUG [Fam2.2 aminoacylation ribozyme variant]”, the self-aminoacylation with biotinyl-Phe-oxazolone worked out at 26.7; with biotinyl-Met-oxazolone it was 3.77; in the data set with biotinyl-Trp-oxazolone, 5.47; in the data set on biotinyl-Val-oxazolone, 3.87; in the data set on biotinyl-Ile-oxazolone it was 3.8; with biotinyl-Leu-oxazolone it was 5.2.

As to “UUUCACCUAGGUCAUCGGCUG [Fam2.2 aminoacylation ribozyme variant]”, the self-aminoacylation with biotinyl-Phe-oxazolone is 8.98; with biotinyl-Met-oxazolone, 1.89; in the data set on biotinyl-Trp-oxazolone it was 2.74; in the data set with biotinyl-Val-oxazolone it was 2.29; in the data set on biotinyl-Ile-oxazolone, 1.93; in the data set on biotinyl-Leu-oxazolone it was 1.82.

Take “UUUCACCUAGGUCAUCGGGUU [Fam2.2 aminoacylation ribozyme variant]”: the self-aminoacylation in the data set with biotinyl-Phe-oxazolone was 44.3; in the data set with biotinyl-Met-oxazolone, 10.4; in the data set with biotinyl-Trp-oxazolone it was 7.39; in the data set on biotinyl-Val-oxazolone, 5.7; with biotinyl-Ile-oxazolone, 6.15; in the data set on biotinyl-Leu-oxazolone, 12.6.

For “UUUCACCUAGGUCAUCGUGUG [Fam2.2 aminoacylation ribozyme variant]”, the self-aminoacylation in the data set on biotinyl-Phe-oxazolone was determined as 4.69; in the data set with biotinyl-Met-oxazolone it was 1.43; with biotinyl-Trp-oxazolone it was 1.34; with biotinyl-Val-oxazolone, 1.27; in the data set on biotinyl-Ile-oxazolone it was 1.19; in the data set with biotinyl-Leu-oxazolone it was 1.19.

With “UUUCACCUAGGUCAUUGGGUG [Fam2.2 aminoacylation ribozyme variant]”, the self-aminoacylation in the data set with biotinyl-Phe-oxazolone is 17; in the data set on biotinyl-Met-oxazolone, 2.51; in the data set on biotinyl-Trp-oxazolone, 3.77; with biotinyl-Val-oxazolone, 2.66; in the data set with biotinyl-Ile-oxazolone it was 2.59; in the data set on biotinyl-Leu-oxazolone, 2.57.

Turning to “UUUCACCUGGGUCAUCGGGUG [Fam2.2 aminoacylation ribozyme variant]”, the self-aminoacylation was 24.2 with biotinyl-Phe-oxazolone; 5.12 with biotinyl-Met-oxazolone; 6.75 in the data set with biotinyl-Trp-oxazolone; 5.26 in the data set with biotinyl-Val-oxazolone; 3.99 with biotinyl-Ile-oxazolone; 4.95 in the data set with biotinyl-Leu-oxazolone.

In the case of “UUUCAGCUAGGUCAUCGGGUG [Fam2.2 aminoacylation ribozyme variant]”, the self-aminoacylation worked out at 39 with biotinyl-Phe-oxazolone; 5.9 in the data set on biotinyl-Met-oxazolone; 7.4 in the data set with biotinyl-Trp-oxazolone; 6.04 with biotinyl-Val-oxazolone; 4.98 in the data set with biotinyl-Ile-oxazolone; 6.61 in the data set on biotinyl-Leu-oxazolone.

As to “UUUCCCCUAGGUCAUCGGGUG [Fam2.2 aminoacylation ribozyme variant]”, the self-aminoacylation in the data set on biotinyl-Phe-oxazolone is 96.8; with biotinyl-Met-oxazolone, 11.8; in the data set with biotinyl-Trp-oxazolone, 10.4; with biotinyl-Val-oxazolone, 6.87; with biotinyl-Ile-oxazolone, 6.97; in the data set with biotinyl-Leu-oxazolone it was 15.1.

For the sequence “UUUUACCUAGGUCAUCGGGUG [Fam2.2 aminoacylation ribozyme variant]”, the self-aminoacylation with biotinyl-Phe-oxazolone was 56.1; in the data set on biotinyl-Met-oxazolone, 10.3; with biotinyl-Trp-oxazolone, 10.4; in the data set with biotinyl-Val-oxazolone, 6.67; in the data set with biotinyl-Ile-oxazolone, 6.78; in the data set on biotinyl-Leu-oxazolone it was 13.5.

“UUUUCCCUGGUCAUCGAGUGA [Fam2.1 aminoacylation ribozyme variant]”: the self-aminoacylation turned out to be 16.5 in the data set on biotinyl-Phe-oxazolone; 11.1 with biotinyl-Met-oxazolone; 14.3 in the data set with biotinyl-Trp-oxazolone; 5.81 in the data set with biotinyl-Val-oxazolone; 5.39 in the data set with biotinyl-Ile-oxazolone; 11.1 in the data set on biotinyl-Leu-oxazolone.

For the origin of these results see the supplement of paper PMC9233669.
